This test deals with T1, lymphotoxin-β (human, UniProt Q06643 4-244, N-linked oligosaccharide (about 3 kD lost on N-glycanase treatment)).
T1 construct: Type II membrane protein; In the reimmunoprecipitation tests the protein had been eluted from SDS-PAGE gel slices; also called LT-β; LT-B
T1 sequence: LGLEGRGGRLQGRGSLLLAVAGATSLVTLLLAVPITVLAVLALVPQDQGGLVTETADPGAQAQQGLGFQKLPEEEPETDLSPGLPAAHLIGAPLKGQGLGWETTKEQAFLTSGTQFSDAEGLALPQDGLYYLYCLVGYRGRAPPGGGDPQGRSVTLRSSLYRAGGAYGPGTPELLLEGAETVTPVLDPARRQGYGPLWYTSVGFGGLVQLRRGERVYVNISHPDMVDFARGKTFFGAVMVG
In words: co-immunoprecipitation, then reimmunoprecipitation of separated bands from 35S-Met labeled II-23.D7 cells. As for the experimental part: Reimmunoprecipitation of SDS-PAGE-separated antigens was carried out by excising labeled bands from gels, rehydrating them for 10 minutes in TBS, 0.2% SDS, and then dicing the gel slices into small pieces. The proteins were eluted by incubation in 1 ml TBS, 0.2% SDS for 8 hours at room temperature, with rotation. After elution the gel pieces were removed by centrifugation, and NP-40 was added to the supernatant to a final concentration of 2%. The eluted proteins were then immunoprecipitated as above, and reanalyzed by SDS-PAGE.

B1: lymphotoxin-α (ligand, human, UniProt P01374 35-205, looked up)
chain: LPGVGLTPSAAQTARQHPKMHLAHSTLKPAAHLIGDPSKQNSLLWRANTDRAFLQDGFSLSNNSLLVPTSGIYFVYSQVVFSGKAYSPKATSSPLYLAHEVQLFSSQYPFHVPLLSSQKMVYPGLQEPWLHSMYHGAAFQLTQGDQLSTHTDGIPHLVLSPSTVFFGAFAL
modifications: N-linked oligosaccharide
notes: mature; also called LT-α; LT
Consider B1, for which the binding result is given as “binds”.

These data come from US20030143210A1 (Biogen, published 2003).
